Results reported in the supplement of paper PMC5998384.

Tests used:
[1] = test system: HeLa Kyoto; assay: solubility in G1/S (NP-40 vs SDS abundance) (log2 ratio); higher = more soluble; details: cell cycle stage: G1/S
[2] = test system: HeLa Kyoto; assay: solubility change mitosis vs G1/S (difference of NP-40 vs SDS log2 ratios) (log2 ratio difference); higher = more soluble in mitosis
[3] = test system: HeLa Kyoto; assay: thermal stability score vs G1/S (z-score of summed log2 fold changes over temperatures); higher = more thermally stable than in G1/S
[4] = cell cycle stage: early G1 (4.5 h after nocodazole release)
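Throughout, for solubility change mitosis vs G1/S (difference of NP-40 vs SDS log2 ratios): synchronized HeLa Kyoto cells (double thymidine block for G1/S, nocodazole release for mitosis), protein amounts in NP-40 versus SDS lysates quantified by mass spectrometry, three biological replicates.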
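Throughout, for solubility in G1/S (NP-40 vs SDS abundance): HeLa Kyoto cells arrested at G1/S by double thymidine block, proteins quantified by TMT10plex mass spectrometry in mild NP-40 versus SDS extracts, three biological replicates.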
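Throughout, for thermal stability score vs G1/S (z-score of summed log2 fold changes over temperatures): synchronized HeLa Kyoto cells, proteins quantified by TMT10plex mass spectrometry, three biological replicates, mitosis taken 0.5 h after nocodazole release, G1/S directly after double thymidine block.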

Sequence of AGRN (chain, as listed by the source): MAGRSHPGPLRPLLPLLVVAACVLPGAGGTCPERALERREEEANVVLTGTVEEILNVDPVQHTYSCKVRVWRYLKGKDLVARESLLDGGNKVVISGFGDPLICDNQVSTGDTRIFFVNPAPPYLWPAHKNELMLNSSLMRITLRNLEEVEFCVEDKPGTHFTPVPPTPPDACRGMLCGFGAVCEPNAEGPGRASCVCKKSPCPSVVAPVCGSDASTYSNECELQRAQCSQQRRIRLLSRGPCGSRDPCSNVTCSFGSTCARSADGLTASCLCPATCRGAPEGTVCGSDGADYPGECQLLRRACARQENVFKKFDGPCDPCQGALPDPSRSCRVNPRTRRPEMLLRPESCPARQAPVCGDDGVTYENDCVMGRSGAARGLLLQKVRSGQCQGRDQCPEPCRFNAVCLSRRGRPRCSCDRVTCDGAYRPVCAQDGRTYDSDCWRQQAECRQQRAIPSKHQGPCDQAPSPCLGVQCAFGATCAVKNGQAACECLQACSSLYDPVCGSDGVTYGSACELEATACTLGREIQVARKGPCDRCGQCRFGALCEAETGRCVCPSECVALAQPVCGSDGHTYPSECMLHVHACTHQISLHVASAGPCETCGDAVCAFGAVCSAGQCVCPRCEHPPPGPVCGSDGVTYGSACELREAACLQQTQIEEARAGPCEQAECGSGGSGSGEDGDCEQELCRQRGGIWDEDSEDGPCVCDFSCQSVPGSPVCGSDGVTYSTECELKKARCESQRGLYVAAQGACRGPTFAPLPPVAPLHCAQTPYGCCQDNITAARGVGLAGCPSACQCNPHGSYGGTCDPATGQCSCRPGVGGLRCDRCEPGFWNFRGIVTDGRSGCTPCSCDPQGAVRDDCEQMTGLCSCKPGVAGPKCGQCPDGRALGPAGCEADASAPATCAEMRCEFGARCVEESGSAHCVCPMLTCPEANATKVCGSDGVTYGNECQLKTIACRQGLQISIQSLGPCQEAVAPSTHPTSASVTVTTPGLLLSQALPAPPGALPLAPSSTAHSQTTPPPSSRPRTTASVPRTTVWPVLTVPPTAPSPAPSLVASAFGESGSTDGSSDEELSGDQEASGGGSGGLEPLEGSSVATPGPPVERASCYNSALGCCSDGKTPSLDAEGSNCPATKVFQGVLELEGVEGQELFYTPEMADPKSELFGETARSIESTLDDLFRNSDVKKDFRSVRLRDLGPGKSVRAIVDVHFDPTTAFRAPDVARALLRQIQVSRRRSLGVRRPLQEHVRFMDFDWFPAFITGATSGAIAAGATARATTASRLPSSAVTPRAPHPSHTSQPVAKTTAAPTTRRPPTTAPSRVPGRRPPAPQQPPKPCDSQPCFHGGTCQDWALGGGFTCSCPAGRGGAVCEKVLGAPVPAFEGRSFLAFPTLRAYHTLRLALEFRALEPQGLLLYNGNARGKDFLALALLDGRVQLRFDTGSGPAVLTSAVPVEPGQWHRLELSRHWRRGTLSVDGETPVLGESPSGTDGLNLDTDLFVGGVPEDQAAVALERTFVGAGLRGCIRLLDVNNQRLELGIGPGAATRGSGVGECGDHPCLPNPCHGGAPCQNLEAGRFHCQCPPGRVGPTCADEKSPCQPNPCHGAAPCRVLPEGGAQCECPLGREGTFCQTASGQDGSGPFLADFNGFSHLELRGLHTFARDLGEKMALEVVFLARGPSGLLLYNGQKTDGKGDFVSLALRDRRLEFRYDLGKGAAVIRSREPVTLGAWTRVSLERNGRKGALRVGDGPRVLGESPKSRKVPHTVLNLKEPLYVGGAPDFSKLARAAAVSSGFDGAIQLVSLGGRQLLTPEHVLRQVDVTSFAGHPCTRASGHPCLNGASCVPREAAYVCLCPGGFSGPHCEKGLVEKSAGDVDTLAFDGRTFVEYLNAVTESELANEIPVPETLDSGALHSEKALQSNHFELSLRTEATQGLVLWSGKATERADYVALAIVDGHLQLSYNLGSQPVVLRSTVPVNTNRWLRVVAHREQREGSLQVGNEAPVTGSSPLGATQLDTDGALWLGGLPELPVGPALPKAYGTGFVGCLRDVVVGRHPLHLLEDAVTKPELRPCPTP
Sequence of PEX16 (chain, as listed by the source): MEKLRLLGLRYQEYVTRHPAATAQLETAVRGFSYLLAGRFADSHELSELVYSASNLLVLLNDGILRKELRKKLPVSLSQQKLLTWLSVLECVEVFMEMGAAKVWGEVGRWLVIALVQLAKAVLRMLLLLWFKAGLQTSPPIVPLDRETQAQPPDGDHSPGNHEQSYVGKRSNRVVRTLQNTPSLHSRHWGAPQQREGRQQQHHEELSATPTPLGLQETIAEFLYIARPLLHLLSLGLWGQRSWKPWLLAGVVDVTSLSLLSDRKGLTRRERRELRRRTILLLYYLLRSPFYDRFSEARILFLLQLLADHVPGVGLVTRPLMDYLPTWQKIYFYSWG

Row | Substance | solubility change mitosis (log2) [2] | further results
1 | MEKMSRVTTALGGSVLTGRTMHCHLDAPANAISVCRDAAQVVVAGRSIFKIYAIEEEQFVEKLNLRVGRKPSLNLSCADVVWHQMDENLLATAATNGVVVTWNLGRPSRNKQDQLFTEHKRTVNKVCFHPTEAHVLLSGSQDGFMKCFDLRRKDSVSTFSGQSESVRDVQFSIRDYFTFASTFENGNVQLWDIRRPDRCERMFTAHNGPVFCCDWHPEDRGWLATGGRDKMVKVWDMTTHRAKEMHCVQTIASVARVKWRPECRHHLATCSMMVDHNIYVWDVRRPFVPAAMFEEHRDVTTGIAWRHPHDPSFLLSGSKDSSLCQHLFRDASQPVERANPEGLCYGLFGDLAFAAKESLVAAESGRKPYTGDRRHPIFFKRKLDPAEPFAGLASSALSVFETEPGGGGMRWFVDTAERYALAGRPLAELCDHNAKVARELGRNQVAQTWTMLRIIYCSPGLVPTANLNHSVGKGGSCGLPLMNSFNLKDMAPGLGSETRLDRSKGDARSDTVLLDSSATLITNEDNEETEGSDVPADYLLGDVEGEEDELYLLDPEHAHPEDPECVLPQEAFPLRHEIVDTPPGPEHLQDKADSPHVSGSEADVASLAPVDSSFSLLSVSHALYDSRLPPDFFGVLVRDMLHFYAEQGDVQMAVSVLIVLGERVRKDIDEQTQEHWYTSYIDLLQRFRLWNVSNEVVKLSTSRAVSCLNQASTTLHVNCSHCKRPMSSRGWVCDRCHRCASMCAVCHHVVKGLFVWCQGCSHGGHLQHIMKWLEGSSHCPAGCGHLCEYS [WDR24] | -0.106 | solubility in G1/S (log2) [1]: -0.232
2 | RIMS1 | 0.0888 | solubility in G1/S (log2) [1]: 0.0741
3 | SLAIN2 | -0.187 | –
4 | PEX16 | -0.0414 | solubility in G1/S (log2) [1]: -0.248
5 | MGFWCRMSENQEQEEVITVRVQDPRVQNEGSWNSYVDYKIFLHTNSKAFTAKTSCVRRRYREFVWLRKQLQRNAGLVPVPELPGKSTFFGTSDEFIEKRRQGLQHFLEKVLQSVVLLSDSQLHLFLQSQLSVPEIEACVQGRSTMTVSDAILRYAMSNCGWAQEERQSSSHLAKGDQPKSCCFLPRSGRRSSPSPPPSEEKDHLEVWAPVVDSEVPSLESPTLPPLSSPLCCDFGRPKEGTSTLQSVRRAVGGDHAVPLDPGQLETVLEK [SNX11] | -0.17 | solubility in G1/S (log2) [1]: 0.38
6 | MGNTTTKFRKALINGDENLACQIYENNPQLKESLDPNTSYGEPYQHNTPLHYAARHGMNKILGTFLGRDGNPNKRNVHNETSMHLLCMGPQIMISEGALHPRLARPTEDDFRRADCLQMILKWKGAKLDQGEYERAAIDAVDNKKNTPLHYAAASGMKACVELLVKHGGDLFAENENKDTPCDCAEKQHHKDLALNLESQMVFSRDPEAEEIEAEYAALDKREPYEGLRPQDLRRLKDMLIVETADMLQAPLFTAEALLRAHDWDREKLLEAWMSNPENCCQRSGVQMPTPPPSGYNAWDTLPSPRTPRTTRSSVTSPDEISLSPGDLDTSLCDICMCSISVFEDPVDMPCGHDFCRGCWESFLNLKIQEGEAHNIFCPAYDCFQLVPVDIIESVVSKEMDKRYLQFDIKAFVENNPAIKWCPTPGCDRAVRLTKQGSNTSGSDTLSFPLLRAPAVDCGKGHLFCWECLGEAHEPCDCQTWKNWLQKITEMKPEELVGVSEAYEDAANCLWLLTNSKPCANCKSPIQKNEGCNHMQCAKCKYDFCWICLEEWKKHSSSTGGYYRCTRYEVIQHVEEQSKEMTVEAEKKHKRFQELDRFMHYYTRFKNHEHSYQLEQRLLKTAKEKMEQLSRALKETEGGCPDTTFIEDAVHVLLKTRRILKCSYPYGFFLEPKSTKKEIFELMQTDLEMVTEDLAQKVNRPYLRTPRHKIIKAACLVQQKRQEFLASVARGVAPADSPEAPRRSFAGGTWDWEYLGFASPEEYAEFQYRRRHRQRRRGDVHSLLSNPPDPDEPSESTLDIPEGGSSSRRPGTSVVSSASMSVLHSSSLRDYTPASRSENQDSLQALSSLDEDDPNILLAIQLSLQESGLALDEETRDFLSNEASLGAIGTSLPSRLDSVPRNTDSPRAALSSSELLELGDSLMRLGAENDPFSTDTLSSHPLSEARSDFCPSSSDPDSAGQDPNINDNLLGNIMAWFHDMNPQSIALIPPATTEISADSQLPCIKDGSEGVKDVELVLPEDSMFEDASVSEGRGTQIEENPLEENILAGEAASQAGDSGNEAANRGDGSDVSSQTPQTSSDWLEQVHLV [ANKIB1] | -0.221 | solubility in G1/S (log2) [1]: 0.00548
7 | MGLTISSLFSRLFGKKQMRILMVGLDAAGKTTILYKLKLGEIVTTIPTIGFNVETVEYKNICFTVWDVGGQDRIRPLWKHYFQNTQGLIFVVDSNDRERIQEVADELQKMLLVDELRDAVLLLFANKQDLPNAMAISEMTDKLGLQSLRNRTWYVQATCATQGTGLYEGLDWLSNELSKR [ARF4] | -0.374 | thermal stability score [3, 4]: 4.99; thermal stability score ([3]; cell cycle stage: mitosis): 6.18
8 | MYRTKVGLKDRQQLYKLIISQLLYDGYISIANGLINEIKPQSVCAPSEQLLHLIKLGMENDDTAVQYAIGRSDTVAPGTGIDLEFDADVQTMSPEASEYETCYVTSHKGPCRVATYSRDGQLIATGSADASIKILDTERMLAKSAMPIEVMMNETAQQNMENHPVIRTLYDHVDEVTCLAFHPTEQILASGSRDYTLKLFDYSKPSAKRAFKYIQEAEMLRSISFHPSGDFILVGTQHPTLRLYDINTFQCFVSCNPQDQHTDAICSVNYNSSANMYVTGSKDGCIKLWDGVSNRCITTFEKAHDGAEVCSAIFSKNSKYILSSGKDSVAKLWEISTGRTLVRYTGAGLSGRQVHRTQAVFNHTEDYVLLPDERTISLCCWDSRTAERRNLLSLGHNNIVRCIVHSPTNPGFMTCSDDFRARFWYRRSTTD [CSTF1] | -0.043 | thermal stability score [3, 4]: -1.59; thermal stability score ([3]; cell cycle stage: mitosis): -2.67
9 | RPL23 | 0.476 | –
10 | AK2 | 0.09 | –
11 | RPL27 | 0.573 | –
12 | RPL32 | 0.91 | –
13 | RPS21 | 0.45 | –
14 | MRPL3 | -0.0054 | –
15 | MRPL4 | -0.11 | –
16 | SARS | -0.0633 | –
17 | NUDT1 | -0.22 | –
18 | RPL37 | 1.29 | –
19 | LARP1 | 0.306 | –
20 | IFI30 | 0.347 | –
21 | RPL4 | 0.805 | –
22 | MRPL18 | 0.126 | –
23 | CNOT11 | -0.0916 | –
24 | RPS5 | 0.452 | –
25 | SNX27 | -0.11 | –
26 | AGRN | -0.0384 | thermal stability score [3, 4]: 3.71; thermal stability score ([3]; cell cycle stage: mitosis): 4.6
27 | FNTA | -0.132 | –

Row | Substance | solubility change mitosis (log2) [2] | further results
28 | DNMT3B | 0.67 | –
29 | MRPL40 | 0.188 | –
30 | COLGALT1 | 0.0451 | –
31 | GAA | -0.231 | –
32 | RAC1 | -0.0656 | –
33 | DPP7 | 0.00739 | –
34 | RPL29 | 1.68 | –
35 | BCKDK | -0.0559 | –
36 | POLB | -0.0195 | –
37 | TACO1 | 0.0266 | –
38 | MRPS25 | 0.166 | –
39 | MRPL35 | 0.149 | –
40 | DPYSL2 | -0.147 | –
41 | MAFIRKKQQEQQLQLYSKERFSLLLLNLEEYYFEQHRANHILHKGSHHERKIRGSLKICSKSVIFEPDSISQPIIKIPLRDCIKIGKHGENGANRHFTKAKSGGISLIFSQVYFIKEHNVVAPYKIERGKMEYVFELDVPGKVEDVVETLLQLHRASCLDKLGDQTAMITAILQSRLARTSFDKNRFQNISEKLHMECKAEMVTPLVTNPGHVCITDTNLYFQPLNGYPKPVVQITLQDVRRIYKRRHGLMPLGLEVFCTEDDLCSDIYLKFYEPQDRDDLYFYIATYLEHHVAEHTAESYMLQWQRGHLSNYQYLLHLNNLADRSCNDLSQYPVFPWIIHDYSSSELDLSNPGTFRDLSKPVGALNKERLERLLTRYQEMPEPKFMYGSHYSSPGYVLFYLVRIAPEYMLCLQNGRFDNADRMFNSIAETWKNCLDGATDFKELIPEFYGDDVSFLVNSLKLDLGKRQGGQMVDDVELPPWASSPEDFLQKSKDALESNYVSEHLHEWIDLIFGYKQKGSDAVGAHNVFHPLTYEGGVDLNSIQDPDEKVAMLTQILEFGQTPKQLFVTPHPRRITPKFKSLSQTSSYNASMADSPGEESFEDLTEESKTLAWNNITKLQLHEHYKIHKEAVTGITVSRNGSSVFTTSQDSTLKMFSKESKMLQRSISFSNMALSSCLLLPGDATVITSSWDNNVYFYSIAFGRRQDTLMGHDDAVSKICWHDNRLYSASWDSTVKVWSGVPAEMPGTKRHHFDLLAELEHDVSVDTISLNAASTLLVSGTKEGTVNIWDLTTATLMHQIPCHSGIVCDTAFSPDSRHVLSTGTDGCLNVIDVQTGMLISSMTSDEPQRCFVWDGNSVLSGSQSGELLVWDLLGAKISERIQGHTGAVTCIWMNEQCSSIITGGEDRQIIFWKLQY [NSMAF] | -0.221 | thermal stability score [3, 4]: -0.603; thermal stability score ([3]; cell cycle stage: mitosis): 0.514
42 | RPS4X | 0.489 | –
43 | VPS35 | -0.178 | –
44 | GADD45GIP1 | 0.258 | –
45 | EMG1 | 0.19 | –
46 | MRPS9 | -0.0743 | –
47 | GORASP2 | -0.317 | –
48 | MRPS14 | 0.165 | –
49 | MEAF6 | 0.685 | –
50 | MRPS5 | 0.017 | –
51 | MASDSGNQGTLCTLEFAVQMTCQSCVDAVRKSLQGVAGVQDVEVHLEDQMVLVHTTLPSQEVQALLEGTGRQAVLKGMGSGQLQNLGAAVAILGGPGTVQGVVRFLQLTPERCLIEGTIDGLEPGLHGLHVHQYGDLTNNCNSCGNHFNPDGASHGGPQDSDRHRGDLGNVRADADGRAIFRMEDEQLKVWDVIGRSLIIDEGEDDLGRGGHPLSKITGNSGERLACGIIARSAGLFQNPKQICSCDGLTIWEERGRPIAGKGRKESAQPPAHL [CCS] | 0.0319 | thermal stability score [3, 4]: 0.914; thermal stability score ([3]; cell cycle stage: mitosis): 0.694
52 | RPL35A | 0.707 | –
53 | POLR2E | 0.311 | –
54 | RPS3A | 0.538 | –

Row | Substance | solubility change mitosis (log2) [2] | further results
55 | MALSU1 | -0.0468 | –
56 | TUFM | -0.0187 | –
57 | MRPL46 | 0.212 | –
58 | ETF1 | -0.146 | –
59 | RPL13 | 0.759 | –
60 | NT5C3A | -0.0945 | –
61 | RPS10 | 0.59 | –
62 | MRPS18B | 0.111 | –
63 | DYRK1A | 0.0078 | –
64 | TMEM263 | 0.0364 | –
65 | POLR2B | 0.175 | –
66 | EI24 | -0.07 | –
67 | CHAF1B | 0.105 | –
68 | NCKIPSD | -0.148 | –
69 | HPCAL1 | -0.0209 | –
70 | PTCD3 | -0.182 | –
71 | RPL30 | 0.776 | –
72 | S100A6 | 0.893 | –
73 | AJUBA | -0.0418 | –
74 | MRPL53 | 0.25 | –
75 | HSPG2 | -0.021 | –
76 | MRPL47 | 0.0261 | –
77 | ACTA1 | -0.193 | –
78 | LRPPRC | -0.118 | –
79 | NCK1 | -0.221 | –
80 | MRPS30 | -0.14 | –
